Consider 5 sequences from the supplement of paper PMC5998384.

The subject of data set [1] is HeLa Kyoto. Description: solubility in G1/S (NP-40 vs SDS abundance) (log2 ratio); higher = more soluble. The conditions noted are these: cell cycle stage: G1/S.
Data set [2] concerns HeLa Kyoto. Description: solubility change mitosis vs G1/S (difference of NP-40 vs SDS log2 ratios) (log2 ratio difference); higher = more soluble in mitosis.
The test system of data set [3] is HeLa Kyoto. Description: melting temperature (median over replicates), in situ; higher = more thermally stable.
The subject of data set [4] is HeLa Kyoto. Description: thermal stability score vs G1/S (z-score of summed log2 fold changes over temperatures); higher = more thermally stable than in G1/S.
The mark [5] stands for this setting: cell cycle stage: early G1 (4.5 h after nocodazole release).
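Throughout, for melting temperature (median over replicates), in situ: HeLa Kyoto cells synchronized by double thymidine or nocodazole block, proteins quantified by TMT10plex mass spectrometry, three independent biological replicates.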
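Throughout, for solubility change mitosis vs G1/S (difference of NP-40 vs SDS log2 ratios): synchronized HeLa Kyoto cells (double thymidine block for G1/S, nocodazole release for mitosis), protein amounts in NP-40 versus SDS lysates quantified by mass spectrometry, three biological replicates.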
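Throughout, for solubility in G1/S (NP-40 vs SDS abundance): HeLa Kyoto cells arrested at G1/S by double thymidine block, proteins quantified by TMT10plex mass spectrometry in mild NP-40 versus SDS extracts, three biological replicates.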
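Throughout, for thermal stability score vs G1/S (z-score of summed log2 fold changes over temperatures): synchronized HeLa Kyoto cells, proteins quantified by TMT10plex mass spectrometry, three biological replicates, mitosis taken 0.5 h after nocodazole release, G1/S directly after double thymidine block.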

With “MQGGEPVSTMKVSESEGKLEGQATAVTPNKNSSCGGGISSSSSSRGGSAKGWQYSDHMENVYGYLMKYTNLVTGWQYRFFVLNNEAGLLEYFVNEQSRNQKPRGTLQLAGAVISPSDEDSHTFTVNAASGEQYKLRATDAKERQHWVSRLQICTQHHTEAIGKNNPPLKSRSFSLASSSNSPISQRRPSQNAISFFNVGHSKLQSLSKRTNLPPDHLVEVREMMSHAEGQQRDLIRRIECLPTSGHLSSLDQDLLMLKATSMATMNCLNDCFHILQLQHASHQKGSLPSGTTIEWLEPKISLSNHYKNGADQPFATDQSKPVAVPEEQPVAESGLLAREPEEINADDEIEDTCDHKEDDLGAVEEQRSVILHLLSQLKLGMDLTRVVLPTFILEKRSLLEMYADFMSHPDLFIAITNGATAEDRMIRFVEYYLTSFHEGRKGAIAKKPYNPIIGETFHCSWKMPKSEVASSVFSSSSTQGVTNHAPLSGESLTQVGSDCYTVRFVAEQVSHHPPVSGFYAECTERKMCVNAHVWTKSKFLGMSIGVTMVGEGILSLLEHGEEYTFSLPCAYARSILTVPWVELGGKVSVNCAKTGYSASITFHTKPFYGGKLHRVTAEVKHNITNTVVCRVQGEWNSVLEFTYSNGETKYVDLTKLAVTKKRVRPLEKQDPFESRRLWKNVTDSLRESEIDKATEHKHTLEERQRTEERHRTETGTPWKTKYFIKEGDGWVYHKPLWKIIPTTQPAE [OSBPL11]”, in the data set on HeLa Kyoto [1], the “solubility in G1/S (log2)” value is -0.139. Besides, the “solubility change mitosis (log2)” value in the data set on HeLa Kyoto [2] is -0.0415. Moreover, the figures for the melting temperature with HeLa Kyoto [3] (cell cycle stage: G1/S) and in the data set with HeLa Kyoto [3] (cell cycle stage: mitosis) were 50 °C and 50.4 °C, respectively. Further, the thermal stability score with HeLa Kyoto [4] (setting [5]) was 0.575; in the data set on HeLa Kyoto [4] (cell cycle stage: mitosis) it was 1.25.

“MQGPPLLTAAHLLCVCTAALAVAPGPRFLVTAPGIIRPGGNVTIGVELLEHCPSQVTVKAELLKTASNLTVSVLEAEGVFEKGSFKTLTLPSLPLNSADEIYELRVTGRTQDEILFSNSTRLSFETKRISVFIQTDKALYKPKQEVKFRIVTLFSDFKPYKTSLNILIKDPKSNLIQQWLSQQSDLGVISKTFQLSSHPILGDWSIQVQVNDQTYYQSFQVSEYVLPKFEVTLQTPLYCSMNSKHLNGTITAKYTYGKPVKGDVTLTFLPLSFWGKKKNITKTFKINGSANFSFNDEEMKNVMDSSNGLSEYLDLSSPGPVEILTTVTESVTGISRNVSTNVFFKQHDYIIEFFDYTTVLKPSLNFTATVKVTRADGNQLTLEERRNNVVITVTQRNYTEYWSGSNSGNQKMEAVQKINYTVPQSGTFKIEFPILEDSSELQLKAYFLGSKSSMAVHSLFKSPSKTYIQLKTRDENIKVGSPFELVVSGNKRLKELSYMVVSRGQLVAVGKQNSTMFSLTPENSWTPKACVIVYYIEDDGEIISDVLKIPVQLVFKNKIKLYWSKVKAEPSEKVSLRISVTQPDSIVGIVAVDKSVNLMNASNDITMENVVHELELYNTGYYLGMFMNSFAVFQECGLWVLTDANLTKDYIDGVYDNAEYAERFMEENEGHIVDIHDFSLGSSPHVRKHFPETWIWLDTNMGYRIYQEFEVTVPDSITSWVATGFVISEDLGLGLTTTPVELQAFQPFFIFLNLPYSVIRGEEFALEITIFNYLKDATEVKVIIEKSDKFDILMTSNEINATGHQQTLLVPSEDGATVLFPIRPTHLGEIPITVTALSPTASDAVTQMILVKAEGIEKSYSQSILLDLTDNRLQSTLKTLSFSFPPNTVTGSERVQITAIGDVLGPSINGLASLIRMPYGCGEQNMINFAPNIYILDYLTKKKQLTDNLKEKALSFMRQGYQRELLYQREDGSFSAFGNYDPSGSTWLSAFVLRCFLEADPYIDIDQNVLHRTYTWLKGHQKSNGEFWDPGRVIHSELQGGNKSPVTLTAYIVTSLLGYRKYQPNIDVQESIHFLESEFSRGISDNYTLALITYALSSVGSPKAKEALNMLTWRAEQEGGMQFWVSSESKLSDSWQPRSLDIEVAAYALLSHFLQFQTSEGIPIMRWLSRQRNSLGGFASTQDTTVALKALSEFAALMNTERTNIQVTVTGPSSPSPVKFLIDTHNRLLLQTAELAVVQPTAVNISANGFGFAICQLNVVYNVKASGSSRRRRSIQNQEAFDLDVAVKENKDDLNHVDLNVCTSFSGPGRSGMALMEVNLLSGFMVPSEAISLSETVKKVEYDHGKLNLYLDSVNETQFCVNIPAVRNFKVSNTQDASVSIVDYYEPRRQAVRSYNSEVKLSSCDLCSDVQGCRPCEDGASGSHHHSSVIFIFCFKLLYFMELWL [CD109]”: the “solubility in G1/S (log2)” value in the data set with HeLa Kyoto [1] is -0.179. In addition, the “solubility change mitosis (log2)” value in the data set on HeLa Kyoto [2] is -0.257. The melting temperature stood at 57.6 °C with HeLa Kyoto [3] (cell cycle stage: G1/S) and 63.2 °C in the data set on HeLa Kyoto [3] (cell cycle stage: mitosis). The thermal stability score in the data set with HeLa Kyoto [4] (setting [5]) was -0.942; in the data set on HeLa Kyoto [4] (cell cycle stage: mitosis), 1.58.

As to “MQKASVLLFLAWVCFLFYAGIALFTSGFLLTRLELTNHSSCQEPPGPGSLPWGSQGKPGACWMASRFSRVVLVLIDALRFDFAQPQHSHVPREPPVSLPFLGKLSSLQRILEIQPHHARLYRSQVDPPTTTMQRLKALTTGSLPTFIDAGSNFASHAIVEDNLIKQLTSAGRRVVFMGDDTWKDLFPGAFSKAFFFPSFNVRDLDTVDNGILEHLYPTMDSGEWDVLIAHFLGVDHCGHKHGPHHPEMAKKLSQMDQVIQGLVERLENDTLLVVAGDHGMTTNGDHGGDSELEVSAALFLYSPTAVFPSTPPEEPEVIPQVSLVPTLALLLGLPIPFGNIGEVMAELFSGGEDSQPHSSALAQASALHLNAQQVSRFLHTYSAATQDLQAKELHQLQNLFSKASADYQWLLQSPKGAEATLPTVIAELQQFLRGARAMCIESWARFSLVRMAGGTALLAASCFICLLASQWAISPGFPFCPLLLTPVAWGLVGAIAYAGLLGTIELKLDLVLLGAVAAVSSFLPFLWKAWAGWGSKRPLATLFPIPGPVLLLLLFRLAVFFSDSFVVAEARATPFLLGSFILLLVVQLHWEGQLLPPKLLTMPRLGTSATTNPPRHNGAYALRLGIGLLLCTRLAGLFHRCPEETPVCHSSPWLSPLASMVGGRAKNLWYGACVAALVALLAAVRLWLRRYGNLKSPEPPMLFVRWGLPLMALGTAAYWALASGADEAPPRLRVLVSGASMVLPRAVAGLAASGLALLLWKPVTVLVKAGAGAPRTRTVLTPFSGPPTSQADLDYVVPQIYRHMQEEFRGRLERTKSQGPLTVAAYQLGSVYSAAMVTALTLLAFPLLLLHAERISLVFLLLFLQSFLLLHLLAAGIPVTTPGPFTVPWQAVSAWALMATQTFYSTGHQPVFPAIHWHAAFVGFPEGHGSCTWLPALLVGANTFASHLLFAVGCPLLLLWPFLCESQGLRKRQQPPGNEADARVRPEEEEEPLMEMRLRDAPQHFYAALLQLGLKYLFILGIQILACALAASILRRHLMVWKVFAPKFIFEAVGFIVSSVGLLLGIALVMRVDGAVSSWFRQLFLAQQR [PIGO]”, the “solubility in G1/S (log2)” value in the data set on HeLa Kyoto [1] is -0.193. Besides, the “solubility change mitosis (log2)” value with HeLa Kyoto [2] was 0.0305. For the same sequence, the melting temperature with HeLa Kyoto [3] (cell cycle stage: G1/S) was 53.6 °C; in the data set on HeLa Kyoto [3] (cell cycle stage: mitosis), 52.7 °C. In addition, the thermal stability score was -0.415 in the data set on HeLa Kyoto [4] (setting [5]) and -0.374 with HeLa Kyoto [4] (cell cycle stage: mitosis).

Consider “MQKIKSLMTRQGLKSPQESLSDLGAIESLRVPGKEEFRELREQPSDPQAEQELINSIEQVYFSVDSFDIVKYELEKLPPVLNLQELEAYRDKLKQQQAAVSKKVADLILEKQPAYVKELERVTSLQTGLQLAAVICTNGRRHLNIAKEGFTQASLGLLANQRKRQLLIGLLKSLRTIKTLQRTDVRLSEMLEEEDYPGAIQLCLECQKAASTFKHYSCISELNSKLQDTLEQIEEQLDVALSKICKNFDINHYTKVQQAYRLLGKTQTAMDQLHMHFTQAIHNTVFQVVLGYVELCAGNTDTKFQKLQYKDLCTHVTPDSYIPCLADLCKALWEVMLSYYRTMEWHEKHDNEDTASASEGSNMIGTEETNFDRGYIKKKLEHGLTRIWQDVQLKVKTYLLGTDLSIFKYDDFIFVLDIISRLMQVGEEFCGSKSEVLQESIRKQSVNYFKNYHRTRLDELRMFLENETWELCPVKSNFSILQLHEFKFMEQSRSPSVSPSKQPVSTSSKTVTLFEQYCSGGNPFEIQANHKDEETEDVLASNGYESDEQEKSAYQEYDSDSDVPEELKRDYVDEQTGDGPVKSVSRETLKSRKKSDYSLNKVNAPILTNTTLNVIRLVGKYMQMMNILKPIAFDVIHFMSQLFDYYLYAIYTFFGRNDSLESTGLGLSSSRLRTTLNRIQESLIDLEVSADPTATLTAAEERKEKVPSPHLSHLVVLTSGDTLYGLAERVVATESLVFLAEQFEFLQPHLDAVMPAVKKPFLQQFYSQTVSTASELRKPIYWIVAGKALDYEQMLLLMANVKWDVKEIMSQHNIYVDALLKEFEQFNRRLNEVSKRVRIPLPVSNILWEHCIRLANRTIVEGYANVKKCSNEGRALMQLDFQQFLMKLEKLTDIRPIPDKEFVETYIKAYYLTENDMERWIKEHREYSTKQLTNLVNVCLGSHINKKARQKLLAAIDDIDRPKR [VPS50]”, for which, in the data set on HeLa Kyoto [1], the “solubility in G1/S (log2)” value was -0.0656. Also, in the data set with HeLa Kyoto [2], the “solubility change mitosis (log2)” value is -0.108. For the same sequence, the melting temperature worked out at 50.8 °C in the data set with HeLa Kyoto [3] (cell cycle stage: G1/S) and 49.6 °C in the data set with HeLa Kyoto [3] (cell cycle stage: mitosis). The thermal stability score in the data set with HeLa Kyoto [4] (setting [5]) stood at 0.281; in the data set with HeLa Kyoto [4] (cell cycle stage: mitosis) it was 0.511.

In the case of “MQPASAKWYDRRDYVFIEFCVEDSKDVNVNFEKSKLTFSCLGGSDNFKHLNEIDLFHCIDPNDSKHKRTDRSILCCLRKGESGQSWPRLTKERAKLNWLSVDFNNWKDWEDDSDEDMSNFDRFSEMMNNMGGDEDVDLPEVDGADDDSQDSDDEKMPDLE [PTGES3]”, the “solubility in G1/S (log2)” value with HeLa Kyoto [1] worked out at 0.0757. In the data set on HeLa Kyoto [2], the “solubility change mitosis (log2)” value is -0.00282. Also, the values for the melting temperature in the data set with HeLa Kyoto [3] (cell cycle stage: G1/S) and with HeLa Kyoto [3] (cell cycle stage: mitosis) were 48.7 °C and 49.9 °C, respectively. Moreover, the results for the thermal stability score in the data set with HeLa Kyoto [4] (setting [5]) and in the data set with HeLa Kyoto [4] (cell cycle stage: mitosis) were 3.93 and 3.45, respectively.
